# Measured values reported in the DeepSol protein solubility set.
# Assay: soluble on expression in E. coli; label from the status in PepcDB or PDB records
row,Sequence,soluble on expression in E. coli
1,MGSDKIHHHHHHMPLDLDTALSSHQPLSLNERKLLDILRRRGAITRATVSAEMDLAQQSVHRLIEELISRGLLRSGERVKNGRGQPSPRIELVNEAVYAIGVSINTDSAVVCVADLGCNVLEQVTLRTPPLSRNSTLDSLAKTIERMLQRNGIETDRVIGMGFAIAGFFLENRQINAPEPLRDWSLIDLQPVLEERFGMPVWLENNATTAAIGESLVGVGAWASNFIYLSFNFGFGAGVVINGKPYFGSHGNAGEITLYNDEESINRPALRYLLEELHQKGVQVDSIEDLRLRFDPNWPGVDTWLKRIQPTLDRLVNALAGLFDPQAVVFGGQLPAELGKRLIAATTFWGTHRYNSPPPRPRLLLSETNGDAAAIGAALVPLKERFFV,not soluble
2,MGSDKIHHHHHHMSLPKYVEQLLKEKSNVRVFSFKYDGKSYWLKQTEKLSFIWRFLKSNPAEMLKSEIIRLQELNKKSAPVPKLVLFGDNFFVTEDVGSSANTWVENEDLSIELRNKVLFDCAQALASLHKQNITHGRPALRDMIWCEEKVIFVDFECTSSSNNIDWQKIRDGLVFIHSLGRSSTVSDEQIALTVTHYRQYCDADIWQKTADFIYKYRWAYYVLRIFKPVARMDLIAIYRLFEAILKNQETL,not soluble
3,MSLKERFSPKMLSDITGVSIRTLHYYHEKGLLVPQQMSANGYRYYNVQDISKLQYILFLKELDLTLKQIQIYFEGDSDFRTKILHDNFYHIVKKRDRLNDIICTLEHHFHQDNEEIEVTTMQNFNLNEQYEKEAASKYGDTHYYQAYKDKQKSKDESEQQNHFEEINKQLNMFFDDMNQLYLNKVSILEASGKIKKLLCILKEQVPNCDNQFLEYIAQIYIEDERFVKFINKQRERGLNLYISDAIKTFIKEGHHHHHH,soluble
4,RCPKGSKAYGSHCYALFLSPKSWTDADLACQKRPSGNLVSVLSGAEGSFVSSLVKSIGNSYSYVWIGLHDPTQGTEPNGEGWEWSSSDVMNYFAWERNPSTISSPGHCASLSRSTAFLRWKDYNCNVRLPYVCKFTD,soluble
5,MTTTIEVGMLGLGTVGSGVVERLTRSAAKIEQTQGIRLHLAAVAVNHLNAPRTVQLPIGTRLTDSLTNVVCDRKIQLVIEVMGTVATAKKAIVAALNQGKAVVTANKDLIATAGPELAALAKKQGCDLFYEASVAGGIPILRTLTDSYVTDNVQAVSGIINGTANYMLSAMATGQSYEQALATAQATGYAEADPTNDVAGIDAAYKLMILSRFAFGQELSLPQIAPTGITHLSASVCRLAAENGWQIKLLAQIQRHGSGLYCRVAPVAVPVDQPLSQINGVQNAVAVQSEAIGTSLYTGPGAGSTATANSVLNDVLVAAKHLINGYRMIRNQKRSVSLTVTRFDQLPQTYLGIGPVAPEAVKYYANEADFSVKTIADDCYQITGLSAVKRKKLRANLPLTLIPIAGTTDWKQVTENSITSPINVAILEHHHHHH,soluble
6,MSLSASRAIKERDSRSHIKVLFPSMPYVYVSRLINEGLVRLAENDQGWEYSLATDCPKLSPTLYECTLRQGVRFQDGTPFNADSVIKNFDYFLAQPFNYTDIHRSLKAVEKVSPYKIRLILSQPYGMLFRDLARIFFYSDAYLRQYGWGGAETGANIKSAGSYGLGPYILVEGMITGRKQTPKAILKANPYYWEKGFPKIETITVFTELETQSALESLLEREGELDFMPIPFNKKIETLLSPYTKLIITPSTNNFTIYFNLHKHDSKVFDPKVRQALNCALNQENLLNFTYKKEGRPNTGAYTHEDCPFSLRELHEILRGLKFKVATQDSLLFLWRGIEYQLSRYGVELEFLLTTSEKEIYDLAQKNHQQTQEWDMLIQGTQDWYGRHPWPIFIRYQEGNPWSFVTGDIKMREAINQLFRHEQGTPEFEALCQTIIQRAKEKAYMLFIPTPHAVYGMNKELHFTPHGIGLQPLWKAEVTSEHWSLRGDKPYPESLQKPILPQREGHHHHHH,not soluble
7,MGSDKIHHHHHHAGCETEGEDIDMRFETCTVSFVQQELRSSYEVYFNGEKSINRSTSVKKNSTLKLEVYKIGEKQPELSQEITLDNSKDIELLKLVGRDIAISSSLEEYTTFTPIISYFNPNTDLYTVTFNNGELSNKVKNYIAEADLSGTLKIVRNVDGQVLYEQDMTIMPEGQFSLMQLSDTDFLDISDGEEADPESRQYTKIRFFYTADAFPGHDKLKLVVYLMDLDAMQFTAPIATIDLEAGKISEYIQIDNDAFGQGVVNGVYDLIDESGNMIVNNLEHFNTSIPIGTSDNKFMTFRFMDPSHQGGDNVQCNFILSTPWK,not soluble
8,MENFLHKWFASEYDLYEEDLEKASALVNSHNIRTVVNVMFQHPIFTVNMMAALTSLPEATVRRYLNRFEEQQLIFSDGRMRSKTYYYYNLLDQLR,not soluble
9,MGHHHHHHSHMIGPIIDKLEKVAVRGGDKKLKPEYDIMCKVKSWVIDQKKPVRFYHDWNDKEIEVLNKHLFLTSKPMVYLVNLSEKDYIRKKNKWLIKIKEWVDKYDPGALVIPFSGALELKLQELSAEERQKYLEANMTQSALPKIIKAGFAALQLEYFFTAGPDEVRAWTIRKGTKAPQAAGKIHTDFEKGFIMAEVMKYEDFKEEGSENAVKAAGKYRQQGRNYIVEDGDIIFFKFNTPRQPKKK,not soluble
10,MALSDRLELVSASEIRKLFDIAAGMKDVISLGIGEPDFDTPQHIKEYAKEALDKGLTHYGPNIGLLELREAIAEKLKKQNGIEADPKTEIMVLLGANQAFLMGLSAFLKDGEEVLIPTPAFVSYAPAVILAGGKPVEVPTYEEDEFRLNVDELKKYVTDKTRALIINSPCNPTGAVLTKKDLEEIADFVVEHDLIVISDEVYEHFIYDDARHYSIASLDGMFERTITVNGFSKTFAMTGWRLGFVAAPSWIIERMVKFQMYNATCPVTFIQYAAAKALKDERSWKAVEEMRKEYDRRRKLVWKRLNEMGLPTVKPKGAFYIFPRIRDTGLTSKKFSELMLKEARVAVVPGSAFGKAGEGYVRISYATAYEKLEEAMDRMERVLKERKLV,soluble
11,MIKIYNGDKLTRQPFFIKLINYLQIHDDVTLRQIKRNFADTEHLERSIEDYVQAGYVLRENKHYYNAFELLENLDGLTLDSQIFVDDQSSIYQDLLALTFETYLSNQTNAALIIEKTDISRDALTLSNYFFKLNENFPLSRKQKPLYHLLGDVNPNYALKYMTTFLLKFWGKDVVKQKRPDIFVQALVLLGYLEQVGKQSYCLKMTFDKEKLIFAS,not soluble
12,MTNFIDRRLNSKNKSTVNRQRFLRRYKNQIKKSVSDAINQRGVTDIDSGESIVIPNRDLSEPTFHQGDGGVKDRVHPGNDQFSTGDRIPRPPKQQGQGGGQGDASDSGEGEDDFTFSISKEEYLNLLFEDLELPNLERNQLDKLIEYKTVRSGFCAEGVASNIDIVKSLQGSIARRIAMTASKRKQIKVLELELQALNNDKHDNIQRKRDLIAEIETLKNKISKVPFIDTFDLRFRNYAKQAVPTSKAVMFCLMDVSGSMDQATKEMAKRFYILLYLFLSRTYKNIDVVYIRHHTQAKEVDEHEFFYSQETGGTIASSALELMNDIITERYNDNQWNIYGAQASDGDNWADDSPRCQALLEQQILPKSRYFSYIEITQRAHQTLWKHYQQVEESHTNFAMQHIKSVADIYPVFRKFFKKNTKSAALEHHHHHH,soluble
13,VLSHCLETGFLTAYLALLVNFKPDVALKCGLYHDIGKADDENGKKNHTVTGAKIGDEFYFENDVKYTIANHHNKNVDNVYCRLTQIGDKLSAG,not soluble
14,MGHHHHHHSHMIGSGLSDLFDLTSGVGTLSGSYVAPKAVWLPAMKAKGLEISGTFTRQVGSISMDLQLTNKALQVMTDFAIQFNRNSFGLAPAAPLQVHAPLSPNQTVEISLPLSTVGSVMKMEPLNNLQVAVKNNIDVFYFSTLYPLHILFVEDGKMDRQMFLATWKDIPNENEAQFQIRDCPLNAEAASSKLQSSNIFTVAKRNVEGQDMLYQSLKLTNGIWVLAELRIQPGNPSCTDLELSLKCRAPEVSQHVYQAYETILKN,soluble
15,MGSDKIHHHHHHMAFSFDSRIRYSEVDSSCRLSLTGLTNYFQDCSVFHSQSHDVGIRFLADNHIAWVLSSWQICINRLPLLNEQVKISTWAYGMKAFYGYRNFTLEDAGGSTLAYANSVWVLVDTRTGRPVKVPQEFADTYGLEPQLEMECAKRKLHIPDDMEKKGEIVVPQFFIDSNHHMNNEKYVMLAQQLLPNDFEISELRVEYRKEAKLGDTVISYVKYTSKSVTVVLADTDKKPYSVVEFLSKPVPGK,not soluble
16,GSHMASMLPEETILDKLPKDFQERITSSKWKDRVEALEEFWDSVLSQTKKLKSTSQNYSNLLGIYGHIIQKDANIQAVALAAQSVELICDKLKTPGFSKDYVSLVFTPLLDRTKEKKPSVIEAIRKALLTICKYYDPLASSGRNEDMLKDILEHMKHKTPQIRMECTQLFNASMKEEKDGYSTLQRYLKDEVVPIVIQIVNDTQPAIRTIGFESFAILIKIFGMNTFVKTLEHLDNLKRKKIEETVKTL,soluble
17,MAHHHHHHMGNTNSSADRSNADDRGVHSEFMYRYETTKKLKLSYMMLKKNVATAVMTMEVTPQHLRDVGTGYSNVCACLKHGGSGGTNSCIQGQAAGREQASISRSRIDREFADESYKGFQTFCEAMDDIKAGVCVTSRTAIHERITVELDRMVLTAERVLKQGRKTMRSMAHFTKVARQVSRRERAAVDQGKDLSSSKRYAKAVKERNEKESLYKTELEAFDQLYEHVMVVSQEFCSSTTDIFLDCIVGYYREIVATIDVSDTPQCSRLQSRFRSREREVVLHQASDAGFCAMPAGHMDGSKSLSSTVPLKWD,soluble
18,MGSDKIHHHHHHMSRFTYAYMMMTRLETLKNNLQAAFGQDLALTESLGELTLEVAAEQWFSACTKLRTDPALRFESCIDLCGVDYLTWGNGTQPEEKTGPVTHGRYAVVVHLLSIEHNWRLRVRTWAPDDEFPMVSSLLECWPGVNWFEREAFDLYGIVFEGHPDLRRILTDYGFIGHPFRKDFPLSGTVEMRYDPEQKRVIYQPVTIDPREITPRVVREGSYGMGR,not soluble
19,MKQLATPFQEYSQKYENIRLERDGGVLLVTVHTEGKSLVWTSTAHDELAYCFHDIACDRENKVVILTGTGPSFCNEIDFTSFNLGTPHDWDEIIFEGQRLLNNLLSIEVPVIAAVNGPVTNHPEIPVMSDIVLAAESATFQDGPHFPSGIVPGDGAHVVWPHVLGSNRGRYFLLTGQELDARTALDYGAVNEVLSEQELLPRAWELARGIAEKPLLARRYARKVLTRQLRRVMEADLSLGLAHEALAAIDLGMESEQ,soluble
20,MKFNIRGENIEVTPALKEYVEKKLSKLERYFDTFPEIKVNLKVYSDKQRVEVTIPFTDLLLRAEETNSDMYAAIDLVVDKLERQIRKHKTKVNRKLREKGSMKTNFILPEAVAVLDEVEEDELELVRTKRFDLKPMDVEEAILQMDMLGHNFFVFTNADTNETNVVYGRKDGKYGLIETKLEHHHHHH,not soluble
21,MGSDKIHHHHHHMARLAVEPLEALARYQGEPALAAMRREFLPAVTDPVWRGLVEEFLTLDEPLTPYAHQCRRVWSFAASPGSGAHHAHIGGLALHVLQDLRNARALAEAHEARGLALDRGLLFAAIMLHDCLKRFVYDFDDDYALVKAEDPFIARHEDHHSWMLRELVARGVDRTLVLAVAAMHGLDDVSLASGVRPLAVVNHYLEIGLTGLEMQPEDVRAEHSIGFLSDSDWPWSGRAQQRAREVAAALSPRFEVTTGYMNLYLGSRFSFEHIDSLLRTKGHDGTVDHLSTLLEKQG,not soluble
22,SLTPLRVLIVEDDPRIAQLHQRFCEKVAGFEVSGLAATYEEADELATILEPDLLLLDLYLPDGNGMDLLRQLRSRGQEVDVVLITAAKDVAAVQQALRAGAFDYIVKPAVFARFEEALTKFAAYRQQLEQGDVLNQNDIDQLLHSHHQPKVMDRGAVPKGIDPLTLTKIRQVFADQEQQGLSAEEVGAQIGASRSTARRYLEYMVSISELTADVVYGTVGRPERRYFSFENEG,soluble
